Assay results from publication PMC2700083, “A covalent peptide inhibitor of RGS4 identified in a focused one-bead, one compound library screen” (BMC Pharmacology, 2009).
Bridges are numbered along the chain shown (N, C = ends).

B5: MBP-RGS4Δ51N C148A (domain or fragment)
chain: not shown
modifications: biotin (sites not given)
notes: RGS4Δ51N; source: expressed, purified and labeled as described previously [5]; not shown: MBP, N-terminal, kept
B7: MBP-RGS4Δ51N, wild type, biotinylated (domain or fragment, UniProt P49799 52-205, looked up)
chain: SQEEVKKWAESLENLINHECGLAAFKAFLKSEYSEENIDFWISCEEYKKIKSPSKLSPKAKKIYNEFISVQATKEVNLDSCTREETSRNMLEPTITCFDEAQKKIFNLMEKDSYRRFLKSRFYLDLTNPSSCGAEKQKGAKSSADCTSLVPQCA
modifications: biotin (sites not given)
notes: RGS4 from which the amphipathic N-terminal helix has been removed (RGS4Δ51N); Rat RGS4 is surmised from the group's earlier work; His6 lies between MBP and RGS4 (MBP-His6-RGS4Δ51N) with a TEV site; also called wild type RGS4-biotin; biotin-RGS4; source: expressed, purified and labeled as described previously [5]; not shown: MBP, N-terminal, kept
B8: MBP-RGS4Δ51N C95A (domain or fragment, UniProt P49799 52-205, looked up)
chain: SQEEVKKWAESLENLINHECGLAAFKAFLKSEYSEENIDFWISAEEYKKIKSPSKLSPKAKKIYNEFISVQATKEVNLDSCTREETSRNMLEPTITCFDEAQKKIFNLMEKDSYRRFLKSRFYLDLTNPSSCGAEKQKGAKSSADCTSLVPQCA
modifications: biotin (sites not given)
notes: as for B5
B9: MBP-RGS4Δ51N C71A (domain or fragment, UniProt P49799 52-205, looked up)
chain: SQEEVKKWAESLENLINHEAGLAAFKAFLKSEYSEENIDFWISCEEYKKIKSPSKLSPKAKKIYNEFISVQATKEVNLDSCTREETSRNMLEPTITCFDEAQKKIFNLMEKDSYRRFLKSRFYLDLTNPSSCGAEKQKGAKSSADCTSLVPQCA
modifications: biotin (sites not given)
notes: as for B5
B10: MBP-RGS4Δ51N C132A (domain or fragment, UniProt P49799 52-205, looked up)
chain: SQEEVKKWAESLENLINHECGLAAFKAFLKSEYSEENIDFWISCEEYKKIKSPSKLSPKAKKIYNEFISVQATKEVNLDSATREETSRNMLEPTITCFDEAQKKIFNLMEKDSYRRFLKSRFYLDLTNPSSCGAEKQKGAKSSADCTSLVPQCA
modifications: biotin (sites not given)
notes: as for B5

Assays:
Conditions in all cases: both partners purified
[1] = biological target: B7; test: FCPIA (flow cytometry protein interaction assay, Luminex beads); competition at one peptide concentration (50 μM unless the cell says otherwise); 5 nM wild type RGS4-biotin on avidin beads, 25 nM Gαo-Alexa Fluor 532, with AMF (AlCl3, MgCl2, NaF and GDP)
[2] = biological target: T1, RGS16 full length, MBP fusion (human, UniProt O15492 1-202); test: FCPIA (flow cytometry protein interaction assay, Luminex beads); dose response curves for 5nd with different RGS proteins on beads and labeled Gαo; curves constrained to 100% and 0%
T1 construct: RGS16, human, full length; source: expressed, purified and labeled as described previously [5]
T1 sequence (looked up): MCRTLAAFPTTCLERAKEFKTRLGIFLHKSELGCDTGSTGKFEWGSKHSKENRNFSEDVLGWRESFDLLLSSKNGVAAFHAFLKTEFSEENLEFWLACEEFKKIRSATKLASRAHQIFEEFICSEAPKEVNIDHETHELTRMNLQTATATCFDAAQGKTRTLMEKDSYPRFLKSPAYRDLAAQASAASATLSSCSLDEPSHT

[3] = biological target: T2, RGS19ΔC11 (amino acids 1–209), MBP fusion (human, UniProt P49795 1-209); test: as above
T2 construct: RGS19, human, ΔC11, amino acids 1-209; source: expressed, purified and labeled as described previously [5]
T2 sequence (looked up): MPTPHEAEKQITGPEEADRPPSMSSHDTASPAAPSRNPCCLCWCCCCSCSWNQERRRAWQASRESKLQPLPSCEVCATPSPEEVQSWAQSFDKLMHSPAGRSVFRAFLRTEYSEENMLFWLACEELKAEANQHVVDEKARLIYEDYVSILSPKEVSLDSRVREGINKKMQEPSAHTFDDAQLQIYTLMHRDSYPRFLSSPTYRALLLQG

[4] = biological target: B7; test: as above
[5] = biological target: T3, RGS8 full length, MBP fusion (human, UniProt P57771 1-180, biotin (sites not given)); test: as above
T3 construct: RGS8, human, full length; source: expressed, purified and labeled as described previously [5]
T3 sequence (looked up): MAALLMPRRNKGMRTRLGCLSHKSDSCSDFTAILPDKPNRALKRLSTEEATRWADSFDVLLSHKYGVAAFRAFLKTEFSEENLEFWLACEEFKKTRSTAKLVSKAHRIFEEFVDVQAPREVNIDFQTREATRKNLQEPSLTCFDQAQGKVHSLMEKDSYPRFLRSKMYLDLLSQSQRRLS

[6] = biological target: T4, RGS7 RGS domain (aa: 305–453), MBP fusion (human, UniProt P49802 305-453); test: as above
T4 construct: RGS7, human, RGS domain, aa 305-453; source: expressed, purified and labeled as described previously [5]
T4 sequence (looked up): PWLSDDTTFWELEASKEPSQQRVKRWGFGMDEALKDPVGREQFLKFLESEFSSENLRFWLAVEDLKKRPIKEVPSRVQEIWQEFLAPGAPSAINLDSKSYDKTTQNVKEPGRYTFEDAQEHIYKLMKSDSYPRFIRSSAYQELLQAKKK

MBP-RGS4Δ51N C132A = biological target: B10; test: FCPIA (flow cytometry protein interaction assay, Luminex beads); dose curves of 5nd on RGS4 cysteine mutants (5 nM, or 20 nM for the mutants with no Cys in the domain or the C-terminus) and labeled Gαo; curves constrained to 100% and 0%
MBP-RGS4Δ51N C148A = biological target: B5; test: as above
[7] = biological target: B7; test: as above
MBP-RGS4Δ51N C95A = biological target: B8; test: as above
MBP-RGS4Δ51N C71A = biological target: B9; test: as above
[8] = biological target: T5, Gαo, Alexa Fluor 532-labeled (UniProt P59215 1-354, Alexa Fluor 532 label (sites not given)); test: FCPIA (flow cytometry protein interaction assay, Luminex beads); Gαo affinities for RGS4Δ51N wild type and mutants on beads, with AMF
T5 construct: G protein alpha subunit Gαo; Used in the presence of AMF (AlCl3, MgCl2, NaF and GDP) to put it into a transition state-like conformation; source: expressed, purified and labeled as described previously [5]
T5 sequence (P59215 whole entry): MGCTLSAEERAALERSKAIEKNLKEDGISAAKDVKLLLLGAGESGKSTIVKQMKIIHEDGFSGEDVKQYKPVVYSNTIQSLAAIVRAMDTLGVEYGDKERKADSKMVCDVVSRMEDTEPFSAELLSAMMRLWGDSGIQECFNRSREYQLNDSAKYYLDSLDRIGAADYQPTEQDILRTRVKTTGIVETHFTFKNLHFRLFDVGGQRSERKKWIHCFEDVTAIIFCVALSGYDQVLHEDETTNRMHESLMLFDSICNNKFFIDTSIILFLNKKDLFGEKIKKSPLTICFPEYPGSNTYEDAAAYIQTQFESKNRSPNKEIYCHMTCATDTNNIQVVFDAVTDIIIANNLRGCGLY

B1: Peptide 5ad (Ac-YWCKGLCK-NH2, S-S) (peptide)
peptide: Ac-YWCKGLCK-NH2
modifications: disulfide 3-7 (inferred)
notes: hit peptide from the focused OBOC library screen; source: synthetic peptide
[1]
  % inhibition of RGS4-Gαo: 37%

B2: Peptide 5nd (Tyr-Trp-c[Cys-Lys-Gly-Leu-Cys]-Lys-NH2, S-S) (peptide)
peptide: H-YWCKGLCK-NH2
modifications: disulfide 3-7
SMILES: CC(C)C[C@@H]1NC(=O)CNC(=O)[C@H](CCCCN)NC(=O)[C@@H](NC(=O)[C@H](Cc2c[nH]c3ccccc23)NC(=O)[C@@H](N)Cc2ccc(O)cc2)CSSC[C@@H](C(=O)N[C@@H](CCCCN)C(N)=O)NC1=O
notes: hit peptide from the focused OBOC library screen; also called peptide 7nd in Roof et al, 2008; hit 5; source: synthetic peptide
[2]
  IC50: 66 µM
  logIC50: -4.18 log M
[3]
  IC50: ~145 µM
  logIC50: ~-3.84 log M
[4]
  IC50: 28 µM
  logIC50: -4.56 log M
[5]
  IC50: 43 µM
  logIC50: -4.36 log M
[6]
  IC50: ~175 µM
  logIC50: ~-3.76 log M
[1]
  % inhibition of RGS4-Gαo: 80%
MBP-RGS4Δ51N C132A
  logIC50: -3.86 log M
MBP-RGS4Δ51N C148A
  logIC50: -4.27 log M
[7]
  logIC50: -4.36 log M
MBP-RGS4Δ51N C95A
  logIC50: -4.71 log M
MBP-RGS4Δ51N C71A
  logIC50: -4.34 log M

B3: Peptide 6ad (Ac-KHCYGFCY-NH2, S-S) (peptide)
peptide: Ac-KHCYGFCY-NH2
modifications: disulfide 3-7 (inferred)
notes: as for B1
[1]
  % inhibition of RGS4-Gαo: 27%

B4: Peptide 2nd (GTCFGTCW-NH2, S-S) (peptide)
peptide: H-GTCFGTCW-NH2
modifications: disulfide 3-7 (inferred)
notes: hit peptide from the focused OBOC library screen; also called hit 2; source: synthetic peptide
[1]
  % inhibition of RGS4-Gαo: 19%

## B5
[8]
  Kd: 0.00684 µM

B6: Peptide 6nd (KHCYGFCY-NH2, S-S) (peptide)
peptide: H-KHCYGFCY-NH2
modifications: disulfide 3-7 (inferred)
notes: hit peptide from the focused OBOC library screen; also called hit 6; peptide 14 in Roof et al 2008; source: synthetic peptide
[1]
  % inhibition of RGS4-Gαo: 23%

## B7
[8]
  Kd: 0.0116 µM

## B8
[8]
  Kd: 0.00817 µM

## B9
[8]
  Kd: 0.0122 µM

## B10
[8]
  Kd: 0.0079 µM
